Source: patent US20240287202A1 (XYPHOS BIOSCIENCES, published 2024)
Blank lines part the entries; values can stand above or below the binder they belong to.

B2: Fc-iNKG2D.YA (NKG2D ectodomain Y152A fused to the C-terminus of human IgG1 Fc) (Fc fusion)
chain: IEGRFLNSLFNQEVQIPLTESYCGPCPKNWICYKNNCYQFFDESKNWYESQASCMSQNASLLKVYSKEDQDLLKLVKSAHWMGLVHIPTNGSWQWEDGSILSPNLLTIIEMQKGDCALYASSFKGYIENCSTPNTYICMQRTV
notes: range 78-216; it is not tied by words to this Fc fusion; not shown: human IgG1 Fc

Assays:
[1] = target: T1, Fc-wtNKG2D (wild-type NKG2D ectodomain fused to the C-terminus of human IgG1 Fc) (human, UniProt P26718 78-216); assay: Octet BLI; Fc-wtNKG2D captured on AHC tips, two-fold dilution series of MicAbody from 50 nM
T1 construct: range 78-216; Dimeric secreted protein from Expi293 cells; also called Fc-NKG2D; not shown: human IgG1 Fc
T1 sequence: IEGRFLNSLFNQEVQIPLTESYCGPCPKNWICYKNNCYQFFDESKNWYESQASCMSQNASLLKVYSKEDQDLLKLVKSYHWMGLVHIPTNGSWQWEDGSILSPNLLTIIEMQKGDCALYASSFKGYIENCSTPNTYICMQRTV
Source text: (§1) The y-axes corresponding to binding responses were set to the same scale for all sensograms.

[2] = target: B2; assay: Octet BLI; Fc-iNKG2D.YA captured on AHC tips, two-fold dilution series of MicAbody from 50 nM
Source text: as §1

ULBP4-Fc (R&D Systems) = target: T2, ULBP4-Fc (R&D Systems) (human, UniProt Q8TD07 31-225, limits assumed); assay: ELISA; ligand-Fc coated, biotinylated Fc-iNKG2D.YA, streptavidin-HRP (legend: the Fc-NKG2D is titrated; axis on the sheet: nM ligand-Fc)
T2 construct: Bought; also called Ligand-Fc fusion; not shown: Fc of the bought fusion; not described
T2 sequence (looked up): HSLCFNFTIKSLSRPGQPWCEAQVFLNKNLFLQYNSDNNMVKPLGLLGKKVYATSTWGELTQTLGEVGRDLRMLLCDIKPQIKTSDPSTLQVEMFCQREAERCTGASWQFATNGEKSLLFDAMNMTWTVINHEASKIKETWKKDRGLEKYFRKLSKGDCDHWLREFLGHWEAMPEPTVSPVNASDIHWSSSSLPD

ULBP2-Fc (R&D Systems) = target: T3, ULBP2-Fc (R&D Systems) (human, UniProt Q9BZM5 26-217); assay: as above
T3 construct: Bought; also called Ligand-Fc fusion; not shown: Fc of the bought fusion; not described
T3 sequence (looked up): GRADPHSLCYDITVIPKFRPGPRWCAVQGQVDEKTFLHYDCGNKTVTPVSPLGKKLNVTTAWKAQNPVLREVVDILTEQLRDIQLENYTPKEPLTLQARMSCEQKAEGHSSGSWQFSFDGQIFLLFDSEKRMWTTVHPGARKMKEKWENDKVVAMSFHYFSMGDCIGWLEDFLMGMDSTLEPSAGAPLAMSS

MICB-Fc (R&D Systems) = target: T4, MICB-Fc (R&D Systems) (human, UniProt Q29980 23-298, limits assumed); assay: as above
T4 construct: Bought; also called Ligand-Fc fusion; not shown: Fc of the bought fusion; not described
T4 sequence (looked up): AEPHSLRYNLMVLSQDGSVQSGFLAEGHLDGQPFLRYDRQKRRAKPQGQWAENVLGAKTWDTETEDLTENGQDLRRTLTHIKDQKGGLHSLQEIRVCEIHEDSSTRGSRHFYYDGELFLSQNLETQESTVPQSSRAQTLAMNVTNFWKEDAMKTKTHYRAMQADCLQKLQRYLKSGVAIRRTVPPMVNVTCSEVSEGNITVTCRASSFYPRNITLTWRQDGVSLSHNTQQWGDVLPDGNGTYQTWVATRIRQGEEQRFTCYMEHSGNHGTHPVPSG

ULBP3-Fc (R&D Systems) = target: T5, ULBP3-Fc (R&D Systems) (human, UniProt Q9BZM4 30-217); assay: as above
T5 construct: Bought; also called Ligand-Fc fusion; not shown: Fc of the bought fusion; not described
T5 sequence (looked up): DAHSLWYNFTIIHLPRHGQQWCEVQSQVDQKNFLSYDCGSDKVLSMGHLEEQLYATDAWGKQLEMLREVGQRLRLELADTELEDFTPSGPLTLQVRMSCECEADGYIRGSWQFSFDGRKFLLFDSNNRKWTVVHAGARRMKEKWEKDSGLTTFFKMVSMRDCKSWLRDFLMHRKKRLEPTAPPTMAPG

MICA-Fc (R&D Systems) = target: T6, MICA-Fc (R&D Systems) (human, UniProt Q29983 24-308, limits assumed); assay: as above
T6 construct: Bought; also called Ligand-Fc fusion; not shown: Fc of the bought fusion; not described
T6 sequence (looked up): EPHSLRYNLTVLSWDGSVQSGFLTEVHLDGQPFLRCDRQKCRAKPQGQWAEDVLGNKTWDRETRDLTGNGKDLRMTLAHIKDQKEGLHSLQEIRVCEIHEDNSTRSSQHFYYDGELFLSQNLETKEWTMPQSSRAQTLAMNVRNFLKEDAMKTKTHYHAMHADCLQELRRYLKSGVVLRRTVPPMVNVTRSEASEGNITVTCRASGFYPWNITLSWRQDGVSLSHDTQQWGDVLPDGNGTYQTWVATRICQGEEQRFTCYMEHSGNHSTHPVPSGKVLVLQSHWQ

ULBP1-Fc (R&D Systems) = target: T7, ULBP1-Fc (R&D Systems) (human, UniProt Q9BZM6 26-216); assay: as above
T7 construct: Bought; also called Ligand-Fc fusion; not shown: Fc of the bought fusion; not described
T7 sequence (looked up): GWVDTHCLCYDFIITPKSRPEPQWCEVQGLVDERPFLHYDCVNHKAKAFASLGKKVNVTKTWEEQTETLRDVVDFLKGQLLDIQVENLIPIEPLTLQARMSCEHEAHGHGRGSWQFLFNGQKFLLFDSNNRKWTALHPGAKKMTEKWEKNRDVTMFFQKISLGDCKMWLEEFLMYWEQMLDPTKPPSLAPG

[3] = target: T8, His-tagged monomeric ULBP2 R81W (human, UniProt Q9BZM5 29-212); assay: Octet BLI; Fc-iNKG2D.YA captured on AHC tips, dilution series of His-tagged monomeric ligand
T8 construct: range 29-212; Construct limits are stated only for wild-type ULBP2-His; position 81 counts on the mature protein, not on the UniProt entry
T8 sequence: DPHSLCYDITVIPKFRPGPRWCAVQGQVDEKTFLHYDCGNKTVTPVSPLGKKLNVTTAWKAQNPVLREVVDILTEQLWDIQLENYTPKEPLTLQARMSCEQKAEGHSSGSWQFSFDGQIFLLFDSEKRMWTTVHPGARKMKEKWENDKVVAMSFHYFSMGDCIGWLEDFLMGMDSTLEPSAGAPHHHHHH
Source text: YA. […] YA were captured with anti-human IgG Fc capture (AHC) biosensor tips then associated with a dilution series of ligand. Data are from single experiments.

[4] = target: T9, A1-A2 domain of human MICB with C-terminal 6x-His tag (monomer) (human, UniProt Q29980 24-205); assay: as above
T9 construct: range 24-205; also called MIC-His ligand
T9 sequence: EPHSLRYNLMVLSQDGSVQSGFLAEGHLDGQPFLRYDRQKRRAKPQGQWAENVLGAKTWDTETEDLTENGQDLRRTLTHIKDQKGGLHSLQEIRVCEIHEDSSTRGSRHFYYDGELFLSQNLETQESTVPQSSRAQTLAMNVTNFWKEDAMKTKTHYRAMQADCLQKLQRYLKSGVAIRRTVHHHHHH
Source text: (§2) Note that all axes are to the same scale (Binding-0 nm, 0.4 nm. 0.8 nm, 1.2 nm (y-axis); Time-0 s, 50 s, 100 s, 150 s, 200 s, 250 s, 300 s, 350 s (x-axis). Data is representative of a single experiment.

[5] = target: T10, A1-A2 domain of human ULBP3 with C-terminal 6x-His tag (monomer) (human, UniProt Q9BZM4 30-212); assay: as above
T10 construct: range 30-212; also called MIC-His ligand
T10 sequence: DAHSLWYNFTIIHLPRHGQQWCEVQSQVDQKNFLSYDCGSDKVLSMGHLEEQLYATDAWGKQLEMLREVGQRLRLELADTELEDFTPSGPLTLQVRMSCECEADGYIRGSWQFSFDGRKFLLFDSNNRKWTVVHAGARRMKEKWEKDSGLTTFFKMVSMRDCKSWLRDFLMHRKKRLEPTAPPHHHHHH
Source text: as §2

[6] = target: T11, A1-A2 domain of human MICA*001 with C-terminal 6x-His tag (monomer) (human, UniProt Q29983 24-205); assay: as above
T11 construct: range 24-205; also called MIC-His ligand
T11 sequence: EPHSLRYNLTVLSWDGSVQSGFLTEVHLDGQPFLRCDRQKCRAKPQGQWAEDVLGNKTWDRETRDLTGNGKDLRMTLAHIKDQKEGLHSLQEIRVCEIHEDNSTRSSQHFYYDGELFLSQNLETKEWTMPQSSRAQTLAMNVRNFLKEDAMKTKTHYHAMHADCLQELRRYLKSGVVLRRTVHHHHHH
Source text: as §2

[7] = target: B2; assay: Octet BLI; Fc-iNKG2D.YA captured on AHC tips, two-fold dilution series from 50 nM
Source text: as §1

mouse NKG2D = target: T12, mouse NKG2D (mouse, UniProt O54709 94-232, limits assumed); assay: ELISA on mouse NKG2D, absorbance against nM MicAbody
T12 construct: also called mouse wild-type NKG2D
T12 sequence (looked up): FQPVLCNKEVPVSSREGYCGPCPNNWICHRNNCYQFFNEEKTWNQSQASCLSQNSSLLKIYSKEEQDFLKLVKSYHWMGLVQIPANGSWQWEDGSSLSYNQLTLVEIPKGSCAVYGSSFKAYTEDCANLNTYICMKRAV

[8] = target: T1, Fc-wtNKG2D (wild-type NKG2D ectodomain …); assay: Octet BLI; Fc-wtNKG2D captured on AHC tips, two-fold dilution series from 50 nM
Source text: as §1

binding result [1]: no binding (tested: 50 nM (legend)) | Kd [2]: 23 pM
B1: Rituximab.HC-U2S3 MicAbody (U2S3 A1-A2 domain fused to the C-terminus of the rituximab heavy chain) (bispecific antibody, IgG1)
heavy (part 1 of 2): QVQLQQPGAELVKPGASVKMSCKASGYTFTSYNMHWVKQTPGRGLEWIGAIYPGNGDTSYNQKFKGKATLTADKSSSTAYMQLSSLTSEDSAVYYCARSTYYGGDWYFNVWGAGTTVTVSAA
heavy (part 2 of 2): GGGSEPHSLSYDITVIPKFRPGPRWCAVQGQVDEKTFLHYDCGQKTVTPVSPLGKKLQVTTAWKAQNPVLREVVDILTEQLWDIQLENYTPKEPLTLQARMSCEQKAEGHSSGSWQFSFDGQIFLLFDSEKRMWTTVHPGARKMKEKWENDKVVATKLYLWSMGDCIGWLEDFLMGMDSTLEPS
light: QIVLSQSPAILSASPGEKVTMTCRASSSVSYIHWFQQKPGSSPKPWIYATSNLASGVPVRFSGSGSGTSYSLTISRVEAEDAATYYCQQWTSNPPTFGGGTKLEIK
notes: IgG1 kappa, D265A/N297A; also called HC-fused MicAbody; Rit.HCd.S3; not shown: human IgG1 heavy-chain constant region, ADCC-deficient; human kappa light-chain constant region

Binder: B2
binding result (ULBP4-Fc (R&D Systems)): no binding (tested: 2000 nM) | binding result (ULBP2-Fc (R&D Systems)): no binding (tested: 2000 nM) | binding result (MICB-Fc (R&D Systems)): no binding (tested: 2000 nM) | binding result (ULBP3-Fc (R&D Systems)): no binding (tested: 2000 nM) | binding result (MICA-Fc (R&D Systems)): no binding (tested: 2000 nM) | binding result (ULBP1-Fc (R&D Systems)): no binding (tested: 2000 nM) | Kd [3]: 3.6 µM | binding result [4]: no binding (tested: 0.3 uM) | binding result [5]: no binding (tested: 1.2 uM) | binding result [6]: no binding (tested: 1.2 uM)

binding result [7]: no binding (tested: 50 nM (legend)) | binding result (mouse NKG2D): no binding (tested: about 300 nM) | binding result [8]: no binding (tested: 50 nM (legend))
B3: Rituximab (antibody, V domains shown)
VH: QVQLQQPGAELVKPGASVKMSCKASGYTFTSYNMHWVKQTPGRGLEWIGAIYPGNGDTSYNQKFKGKATLTADKSSSTAYMQLSSLTSEDSAVYYCARSTYYGGDWYFNVWGAGTTVTVSA
VL: QIVLSQSPAILSASPGEKVTMTCRASSSVSYIHWFQQKPGSSPKPWIYATSNLASGVPVRFSGSGSGTSYSLTISRVEAEDAATYYCQQWTSNPPTFGGGTKLEIKR
notes: also called Rituximab (ADCC-); Rituxumab (ADCC); copies: 2 + 2
